This data set in a line: label from the status in PepcDB records.
Turning to “DRRVRRNMEIAEIVGLDAHTKMLRTSTVFQWDSVKDEHAMVGTSKALEEIRRQRGWSVRELNEELERRRRVLEFMLSNGIRMFKDVSAVIHTYQVNPERAMKRLGVEEL”, the protein production entry is reported as “failed”.
Regarding “NSNTLSQIQLNEQSCLSQVVNNLYRLHNSEFVFRNVFSVFDEFRQYFSLLENKSAFYQADSRMDKLSAVFWQFEEINKEVILRPCHNDLVPENMLLQDDRLFFIDWEYSGLNDPLFDIATIIEEAHLSKEAADFLLETYCNQTNKYHKTEFQIAHKRLKIHRFCQNVLWFLWTKVKEEHGENFGDYALKRLDAAFKLLEELP”, the protein production entry was “failed”.
For the sequence “MVEPMTPRFKYTKASQENIQQLGNILEQCFVMSFGDSEIYVKGIGLENFRVIYREQKVAGGLAILPMGQWWGGQRVPMAGIAAVGIAPEYRGDGAAIALIQHTLQEISEQDIPISVLYPATQRLYRKAGYEQAGSSCVWEIPTDSIQIQHASLPLEPVVLKNNPIFHELYQQQAQLTHGYLDRHPAIWQGLNRTLDTETLYSYLIGDKDKPQGYIIFTQERTRDGSILRIRDWVTLSNPAVQSFWTFIANHRSQIDKVTWKSSVIDALTLLLPEQSATIRSQDRWMLRIVNVCKALEARGYPLGVEAELHLEVQDDLLATNQGKFILSVANGKSEVTKGGKGELQLDIKGLASLYTSLFTPRQLQLTGKLQATETALLKATQIFAGESPWMIDFF”, the protein production result is “not failed”.
As for “MKIIVVGCGKIGYTIAKVLSEKKDIDVTVVDNNPNIFDKMVEPIDVIFISGNGANEKTLIEAGAKDADLIVSTTNADELNVLCCIMAERLGTKHSIARVRNPEYMLEFNKLWKDLGIDMVINPERQTAREISRILRYHAADDIVTFIGDRVELVSFKVSETPEYFVGKSVSQIFDNNMGILLAIVERENQALIPNGDLIFKESDIIWIMGRPSQIMKFFTLIKKGPKKGQEIMVIGGGKITHYLVELLNRHTTKANIKIIKKDRSKCESLYEALSSASLERRCLFIHGDGTNEELLIDEGIDTMDACVCLTDRDEENVFISLYAMRRGVKKVITKINYIHQNMAKSLGLWLGNIITPQYITAKTVIRYVDGLSGAVGRNIMTIHQIYSGDDGNVDAIEFQVNKKAKCIDTPIKKLKLKKGILIGCISRDFDIIIPSGETEIHIGDRVIIFSKNNDIRDLDDILEN”, the entry is “failed”; as for “MKVVLVGATGFVGRHLLAALHAAGHQLIATSRRPQPQGLPGVEWRQLDLDCLGREPQPFALPADTDLLINAAGLLSTDARALSLTQDLGTRALFDLAAARGVRVLQISALGAGILPQVPFLASKAAADDYLLQLGVPAVVLRPSLVLGAGGASSGWLTRLSPWPLIPLLSAKAQMQPLHIEDLSAAVLALLRQWPQESMVLPLVGPERMTMAQLLDRLRSAQGWAPARYFKLPAVLLRLVAAAGDRLGWRALNRQSLAMARHDNLADPQVLASVCGYHAAPLAARLQDWPQAAQSTQLALRPLLLAVMVLIWLGTALVCIGPGYAWGLRIMAEAGVQGIWAALAVIGGSLCDALLGVGLLLRRWRRRALQAQLGLMLGYTLIISLILPHFWFDPYAAVAKNLVLMVATLWLLWTEPHQ”, “failed”; as for “MQRLEVREPVPYPILVGEGVLKEVPPLAGPAALLFDRRVEGFAQEVAKALGVRHLLGLPGGEAAKSLEVYGKVLSWLAEKGLPRNATLLVVGGGTLTDLGGFVAATYLRGVAYLAFPTTTLAIVDASVGGKTGINLPEGKNLVGAFHFPQGVYAELRALKTLPLPTFKEGLVEAFKHGLIAGDEALLKVEDLTPQSPRLEAFLARAVAVKVRVTEEDPLEKGKRRLLNLGHTLGHALEAQTRHALPHGMAVAYGLLYAALLGRALGGEDLLPPVRRLLLWLSPPPLPPLAFEDLLPYLLRDKKKVSESLHWVVPLAPGRLVVRPLPEGLLREAFAAWREELKGLGLLR”, “not failed”.
Consider “EMFYFEPVNIKKYLGSIGSELSDEVITIEQFFNLNSEYITIIDARSPREFSEKTISNAVNIPLFLTEEYETIGKLYKHEGKEVAIAKAGIIIQDGIKRIVSESLKLDPNKNLVVFCARGGMRSQSIATILKLLGFKVKRLVGGFKSYNISKT”, for which the protein production result is “failed”.
As for “GPLQVSNARLLFPISMPEDEGVVRLVVNNTDESDLQVAVVSLPSFVSLDDRAFRLQAREPRELNLSLAVPRNMPPGMKDEPLVLEVTSPETGKKAVDSVMVSLPLVDNFPALTAAQTGVMELSTYLDMGQLDGETTKAAIEIRNVGAGPLRLHSVTTRNPALTAVPDRTEIKPGGSTLLRIAVDPQVMKAEGWQSIAADISIICNDPQAPLRRIKVKAEL”, the protein production result is given as “not failed”.
Regarding “MYMAQPGHIDHIKQINAGRVYKLIDQKGPISRIDLSKESELAPASITKITRELIDAHLIHETTVQEAISRGRPAVGLQTNNLGWQFLSMRLGRGYLTIALHELGGEVLIDTKIDIHEIDQDDVLARLLFEIEEFFQTYAAQLDRVTSIAITLPGLVNSEQGIVLQMPHYNVKNLALGPEIYKATGLPVFVANDTRAWALAEKLFGHSQDVDNSVLISIHHGLGAGIVLDGRVLQGRHGNIGELGHIQIDPQGKRCHCGNYGCLETVASSQAIRDQVTARIQAGEPSCLATVEEISIEDICAAAADGDPLAVDVIQQLGRYLGAAIAIVINLFNPEKILIGGVINQAKSILYPSIEQCIREQSLPVYHQDLKLVESRFYKQATMPGAALIKQALYDGLLLMKVVEG”, the protein production result is given as “not failed”.
Regarding “MIILDNLEQFKVVYRDGRKWNRCVEAIENIGNLRDGIMYSIGDSLVYMIEDGIAKNTETFVGNRRYFDIHYYLEGRETVEVASKSELESVQAYSDETDREHLNGNGQKHQLCEGQVAVFDNTKAYKFHGDNRVRKVVLKVTIEDGYFLNK”, the protein production entry was “failed”.
Regarding “MGHHHHHHSHPPRDLDSKACISIGNQNFEVKADDLEPIMELGRGAYGVVEKMRHVPSGQIMAVKRIRATVNSQEQKRLLMDLDISMRTVDCPFTVTFYGALFREGDVWICMELMDTSLDKFYKQVIDKGQTIPEDILGKIAVSIVKALEHLHSKLSVIHRDVKPSNVLINALGQVKMCDFGISGYLVDSVAKTIDAGCKPYMAPERINPELNQKGYSVKSDIWSLGITMIELAILRFPYDSWGTPFQQLKQVVEEPSPQLPADKFSAEFVDFTSQCLKKNSKERPTYPELMQHPFFTLHESKGTDVASFVKLILGD”, the protein production result is given as “not failed”.
In the case of “MSNIFLSLEPKILWSHFYRLTQIPRPSGHEEAVRTYVADVAKRCGLEWLVDEAGNIIVRKPASAGMERRRGVILQAHLDMVPQKNAGTAHDFTKDPIDAVIDGEWVHARGTTLGADNGIGVAAALAVLESDDLRHGPLEALFTVNEEAGMTGALGLKPGVLRGDILLNLDSEDEGELFIGCAGGLDGTMRFDYSCEPLPPGYSGIEIRVSGLRGGHSGMDIDLGRGNANKIMNRLLQMGREHHGLLLASIDGGSLRNAIPRESVALVAVPSAQKVAFLDELHSLASAIGLELNGVDPELRVEAADAALPVGMIDDTVAQRLFDAVAACPNGVHRMSEAMAGLVETSNNLARVHSDGRAVSVECLLRSASVEGMRELADAVAGIAERAGTVAAFENGYPGWKPNPASPILKCMVKVYRDRFGKTPEIRAVHAGLECGIIGANNPQLDMISFGPTIRHPHSPDEKVECSSVLKFWELLVATLEEVPEPLEHHHHHH”, the protein production entry was “failed”.
Turning to “MMTETVRTWRHIPQRYNLTGSKCLQCGNVFFPSRIICPECRRKGKLEELKFSGKGRIHSYSVINTPTDEFKDIAPYVVAIVELEEGARVTSQIVDCDPDSIEIGDEVEMVFRKVREEGEDGVISYGFKFKPKT”, the protein production entry is reported as “failed”.
As for “MAPLSFEVRSVSVLVLVLAVSAAFCLGIGFVLQQNAAQHAPLSDFLSPRLLLDLMHVRRWLGGIGFMVVGMVLGAVALAHGELSLVEPLLATNLLFALGLSRRQTKQPLGRQGWAGLALLAGGVTAFIVAGQPTGGDAVTNPLRHWVIIGVMVGFALLLTTYAKQSRLSAAPVLLSLAAGLLYGVQDALTRVSGQRFSEGGWPELVTGWQPYAVLALGVTGLVLVQSAFETAPLRMSLPALTAAQPLAGIVCGVGFLGDQLRTDTGALAWEAAGLAAVVLGIVLLGLHPAMPRGSAEAERQRDLQPH”, the entry is “failed”.
For “MGRLFVVNLEGKIYSCKHCKTHLATYEDIISKSFHCKHGKAYLFNKVANVSIGETEERLMMTGKHTVADIFCVSCGSIVGWKYETAHEKNQKYKEGKSVLERFKISGPDGSNYWVSSHGRHIGGSDADDA”, the protein production result is on record as “failed”.

These data come from a protein production outcome set (Wang et al. 2014).
